{"source": "paper PMC4557121", "about": "(2015)", "assay_in_all_cases": "SPR", "key": {"M5": {"target": "M5"}, "M6": {"target": "M6"}, "M11": {"target": "M11"}, "A2": {"target": "A2 (UniProt Q13501)"}, "[1]": {"target": "A2 with residue 3 substituted with alanine (UniProt Q13501)"}, "[2]": {"target": "A2 with residue 9 substituted with alanine (UniProt Q13501)"}, "M1": {"target": "M1"}, "[3]": {"target": "A2 with residue 7 substituted with alanine (UniProt Q13501)"}, "[4]": {"target": "A2 with residue 4 substituted with alanine (UniProt Q13501)"}, "M2": {"target": "M2"}, "M10": {"target": "M10"}}, "data": [{"binder": "purified TRB3 protein (natural protein) MRATPLAAPAGSLSRKKRLELDDNLDTERPVQKRARSGPQPRLPPCLLPLSPPTAPDRATAVATASRLGPYVLLEPEEGGRAYQALHCPTGTEYTCKVYPVQEALAVLEPYARLPPHKHVARPTEVLAGTQLLYAFFTRTHGDMHSLVRSRHRIPEPEAAVLFRQMATALAHCHQHGLVLRDLKLCRFVFADRERKKLVLENLEDSCVLTGPDDSLWDKHACPAYVGPEILSSRASYSGKAADVWSLGVALFTMLAGHYPFQDSEPVLLFGKIRRGAYALPAGLSAPARCLVRCLLRREPAERLTATGILLHPWLRQDPMPLAPTRSHLWEAAQVVPDGLGLDEAREEEGDREVVLYG", "values": [{"measurement": "Kd", "setting": "M5", "result": 110, "unit": "nM"}, {"measurement": "Kd", "setting": "M6", "result": 0.142, "unit": "nM"}, {"measurement": "Kd", "setting": "M11", "result": 73.1, "unit": "nM"}, {"measurement": "Kd", "setting": "A2", "result": 10.2, "unit": "nM"}, {"measurement": "Kd", "setting": "[1]", "result": 3.59, "unit": "µM"}, {"measurement": "Kd", "setting": "[2]", "result": 35.6, "unit": "µM"}, {"measurement": "Kd", "setting": "M1", "result": 1640, "unit": "nM"}, {"measurement": "Kd", "setting": "[3]", "result": 11.8, "unit": "µM"}, {"measurement": "Kd", "setting": "[4]", "result": 4.32, "unit": "µM"}, {"measurement": "Kd", "setting": "M2", "result": 402, "unit": "nM"}, {"measurement": "Kd", "setting": "M10", "result": 381, "unit": "nM"}]}]}
